Source: the DeepSol protein solubility set

Assay: soluble on expression in E. coli; label from the status in PepcDB or PDB records

| Sequence | soluble on expression in E. coli |
| --- | --- |
| SYPYLMLSGHQYPQMAYYRGTLKKPNQYFGPYPNSNAVRDSIQVLQKVFMLRTCEDSVFEHRDRPCLLYQIKRCTAPCVGHISEEDYRDSVREAATFLNGKTDELTRTLQHKMQTAAANLQFEEAARYRDQIQALGIMQSNQFIDSKNPNNPNDIDLLALAVSDGLVCVHWVSIRGGRHVGDKSFFPDTKNDPEPNGQDYAEAFVAQHYLGKSKPDIIISNFPVPDALKEALEGEHGKQMQFVTKTIGERKVRLKMAEQNAQMAIAQRRLQQSSQQHRIDELAKILGMDSDGLNRLECFDISHTQGEATIASCVVYDEQNIQPSQYRRYNITTAKPGDDYAAMREVLTRRYGKMQEAEANGETVKWPDAVLIDGGKGQIGVAVSVWEELGLHIPLVGIAKGPERKAGMEELILPFTGEVFRLPPNSPALHLLQTVRDESHRFAITGHRKKRDK | not soluble |
| MSIKIKNAVEIEKMRVAGRLAAEVLEMIEPHVKAGVTTEELDQICHKYITEVQGAIPAPLNYHGFPKSICTSINHIVCHGIPASEDTYFGQIQRPAVLRDGDILNIDITVIKDGYHGDTSKMFLIGDVSIEDKRLCHVAQECLYLALKQVKPGVQLGEIGTTIEKHIKTNNKNNPRFKFSIVRDYCGHGIGAEFHEEPQVVHYKNSDRTVLREGMIFTIEPMINAGKFGCRLDDEDSWTVYTADGKKSAQWEHTILVTATGCEILTLRSEESLPRILNNA | not soluble |
| ENKILKIEKGTSGWGGPLYIKKEGNRNKILSMTAGGIHEVTLKIKELLGCEIVDGFKTGVSDEEVAVVIIDCGGTARCGVYPKKKIPTINVNPVGKTGPLAKFITEEYYVSDVNPNCISVVDGEDMPQKSQENKSENKSSIRKPDNYDEVKSKAQGEYAKKNIILSIGQGAGQVVSKFYDAGRDTIQMVMNN | not soluble |
| MSSITKSRSTKKLSQVIVEQLIETIQSGEFKIGEKIPTELELIEQFDVSRSVIREAITELRSLGFVETRHGIGTFVKEQNIEQNFLLSNASLETINDIVALLELRISLESEAVFLASERRKNKHLEKMKIALNDFEAHISSGENDGTVKADYDFHIAIAEASGNQYFVDFLKYLGEKIIPRARVKSIEQSPENREEYLKTVHHDHVNIYNAILDQDGLLARQMMRAHLSKSIKKFKQ | not soluble |
| RTAAELMGRCSSKGLGISDIMFINERASRSEEEIREGLLHIWSVMEACVETSLKREGVLPGGLKVRRRSPDWLERLLKEDKDRNDPKYWQEWVNLIALAVNEENASGGRVVTAPTNGAAGIIPAVLYYALNYAPGMDKASQADKDDVVVKFLLAAGAVGVLYKEQASISGAEVGCQGEVGSASSMAAAGLAEVMGGSPGQVENAAEIAMEHNLGLTCDPIGGLVQIPCIERNAIAAAKAINAAKMALWGDGTHRVSLDEVIVTMRETGKDMSSKYKETAMGGLAVN | not soluble |
| MSLATILIADDDPVTRTTLSIMLEDEDHEVYEAADSAETLDLLETTEPHVVFMDMVLPDCEAGEGITRVRRAAPAVTIIAMTGQPDTARFSAMARDAGCKECLIKPFEKNRVLALTRKVLAARGHKEGHHHHHH | not soluble |
| MSLSHVLQELRDVRQASHKVSQGARVLFPCELLSALSLLQTSAQASYQAVVETGLGLARGLREQILKAAAILGVADPSGIYIQPEDEHRLDVVGRLFEAMLRDSCLYPQSRVWIGHLLVPVAKVALRDSCLLETDHHPVWRLLMLLVDACNGNKGEDPAEHALLMQVRETVETVVREFDDDVTLFQTQQAALSMHYEQYVAKTRNTQRHVAECEITEERRQQAQRVADDALKQCLLGHVLPQQIEHFLRRIWCAHVQQVALLNDDNGQALKAVLALGDALLVQWRQASEGSIPERPWLYEERAGILEAFCIAGMTLVEAEAGFANLQHVLAAATPQSSVIATSTQTQSFDTFISVPDTSATSELNTASPSYFRELPLGTWLDFIGIDGRIQSGQLSWVSPISGRLMFVNHRGRRLCVTAPEELSTLMCLGRLRLHRAGDSLMSEGHHHHHH | not soluble |
| MSLGMASHPPIPILELADHIERLKANDNLKFSQEYESIDPGQQFTWEHSNLEVNKPKNRYANVIAYDHSRVLLSAIEGIPGSDYVNANYIDGYRKQNAYIATQGSLPETFGDFWRMIWEQRSATVVMMTKLEERSRVKCDQYWPSRGTETHGLVQVTLLDTVELATYCVRTFALYKNGSSEKREVRQFQFTAWPDHGVPEHPTPFLAFLRRVKTCNPPDAGPMVVHCSAGVGRTGCFIVIDAMLERIKHEKTVDIYGHVTLMRAQRNYMVQTEDQYIFIHDALLEAVTCGNTEVPARNLYAYIQKLTQIETGENVTGMELEFKRLEGHHHHHH | soluble |
| SAGLGANSDVMVKLDDGHLNNSLRSPVQAGVYFRGHIKGGMRPGKKVLVMGIVDHNPKSFAISLTCGDSEDPPADVAIELKVVFTNQQVFRNSCISGESDEENLAFPYFPFVPDQPFRMEIFCQQPCFRVLVDGHHLFDFYHRIQTLSAIDSIKISGDLQITKLG | soluble |
| MGYLNNVTGYREDLLANRAIVKHGNFALLTPDGLVKNIIPGFENCDATILSTPKLGASFVDYLVTLHQNGGNQQGFGGEGIETFLYVISGNITAKAEGKTFALSEGGYLYCPPGSLMTFVNAQAEDSQIFLYKRRYVPVEGYAPWLVSGNASELERIHYEGMDDVILLDFLPKELGFDMNMHILSFAPGASHGYIETHVQEHGAYILSGQGVYNLDNNWIPVKKGDYIFMGAYSLQAGYGVGRGEAFSYIYSKDCNRDVEILEHHHHHH | not soluble |
| MSSTECYGAPPHNYYQDWPTTHSYYPSVPSSYSPLNHHPADIWAAHPSNYIMGNGHVSPPATASGLSPPASRSSNSSAELPTGVTASQHNTYKWMHTKRSQRPAAPKKKVIDENGTNRTNFTTHQLTELEKEFHTAKYVNRTRRTEIASNLKLQEAQVKIWFQNRRMKEKKREKEKAFLARNTWESNSPTSSCSGEDVKNFK | not soluble |
| MGSDKIHHHHHHAGTYNPKNTTSFNINKSNYVAKGRIYKLRLPAAGRVVTNSDITLKNSMEWTCIPYGKDKNTYYLRKGTYYLTSSKNTNVKTAYTRLTKIRKNLETYVETKKNNDNSSLRAREIKVGQKIKAMGAMYDYDGIDYYRFTIDSPQMVTMKMTNAPIYQLGNGNIFSKMGITMFSDNNPVGDNTILYPETFSSKGNKSASQSWYLAKGTYYFSVSTRGLYNFQLTAVPDTRMVPADTEIESLKDTKDGVVASLRDALHAKTYELAWREKGSKFAPFSSSSNTTKVSTASATRYLKVNGHEIPVQIGRKLVNGQTYEFVARGVSNPNYIRYGNPETDNYFGAWTKIVEHTYYAPANGVPGAVELNAQADNTYHNIHVSWTKIDTAQSYRVAYRQKGTNKWYYEVTDQDSNAVTGITRNKTYELKLQALNGKEEGPWSTVKEVFLK | not soluble |
| QDLLLSYKGKLKNDSIEGEFRQGRFGTMMSLYRGLDAAKPYRPQTPVPPFPYDVTDVKILHKTGGFTIAGTLTAPKDANKTKGTVILISGSGLQDRDETIFGHKPFAVLADQLTRHGYAVLRCDDRGFGESAGDASQATTDTLAGDIESELAYLRQHYPRLTDKVFLIGHSEGGIIAPMVARRVGGIAGLVLVGAPSVKGAEILLSQNAAMDEFATGQPQSQAKRAALEELIRQATAPGDTSDIRTRIESYCRSNASVLFPQAMTDEMKEQGIKLMTEQLYTPWMRHFLTYDPAPLLDVTSGEGSHPLPPTMAIYGGRDKQVLHEVNMSKMKSLLGIETGNTTNKVVYLPEVNHIMQPAEFGTPDEYAFLNRTVDTELMEIVCSFLDSL | not soluble |
| MGSDKIHHHHHHMQSSSTLFPVALLSAERRGDLSEDVYRIKAGNGPDPSVELAITRLGLADQAQAQGVPVILLHGSFSNRRFWYSPKGVGLGAYLARAGFDVWIPEMRGHGLSPRNHDWKHNSVAAYARDDLPLINAFVREQSGQAPHWVGHSLGGTTLVAALGGGFLAAEQLASVALFGTQISRVYWPLKVPPLAWGAKLVLKRWGQISGPRFKRGPEDEPIGLALESMRWHGLFGRFGDKQNDWWAGLAEVDVPLLAVAGAGDFQDPVWACRKLFEQLGGERKQFLRLGREEGFEAFGHVDMLVSKAAQVQVWPLVERWLHNPLLPVHASTVVAEPVPAS | not soluble |
| MAHHHHHHMKLLSSVGRLSVVAGGLSLIPYTFIYDVDGGERCVMFNRFGGVSENTYGEGSHFYIPWFQTPYIYDIKMKPKVINTTTGTRDLQIVTLSLRLLFRPHTKQLPYLHSTLGPDYDERVLPSIGNEVLKAVVAKYNAESLLTQRDKISKEIRESITARAKHFNILLDDVAITHLSYGKEFAKAIEDKQVAQQESERVKFIVAKTEQEKIAAVIKAQGEAEAAKLISSAVKEYGNSLLEIRKLEAAKEIAENLSKSKNVTYFPASFNILLNPKNL | not soluble |
| MQDEYYMARALKLAQRGRFTTHPNPNVGCVIVKDGEIVGEGYHQRAGEPHAEVHALRMAGEKAKGATAYVTLEPCSHHGRTPPCCDALIAAGVARVVASMQDPNPQVAGRGLYRLQQAGIDVSHGLMMSEAEQLNKGFLKRMRTGFPYIQLKLGASLDGRTAMASGESQWITSPQARRDVQLLRAQSHAILTSSATVLADDPALTVRWSELDEQTQALYPQQNLRQPIRIVIDSQNRVTPVHRIVQQPGETWFARTQEDSREWPETVRTLLIPEHKGHLDLVVLMMQLGKQQINSIWVEAGPTLAGALLQAGLVDELIVYIAPKLLGSDARGLCTLPGLEKLADAPQFKFKEIRHVGPDVCLHLVGA | soluble |
| SMLSRAKPAVGGESPHTDKRKKKGRKIPKLEDLLSQRDFTGAITLLEFKRHVGEQEDDTNLWIGYCAFHLGDYKRALEEYENATKEENCNPEVWVNLACTYFFLGMYKQAEAAGFKAPKSRLQNRLLFHLAHKFNDEKKLMNFHQNLQDIKEDQLSLASNSEIHLPLPPECWD | soluble |
| SRPVFAAKPDNEAIIDAQMKKPKVPVHAIATASHPMIRFIGHPEEQKNYDFFVPWLSKLPQWIAEGKQPYVMIHTADNIIAPELAANIYKNLQNHVALPDLAPFPANDGNSQLQMF | not soluble |
| MNRWQRAWRHLCSTGWQARRQFPAAQLKRLERQIAESERAHRGQLRFVVESALDWRAAWRGMSARERALQWFGELRVWDTEDNTGVLVYLLLAERRIEIVADRGIHRLAPAGEWAGICADMQRAFAAGAHVEGLESGLRRIHALLLAHAPRNGEPFVNELPDQVVVRLEHHHHHH | not soluble |
| MTARVIALDLDGTLLTPHKTLLPSSLEALSRAKEAGFQLIIVTGRHHVAIHPFYQALALETPAICCNGTYLYDYQAKTVLDADPMPVDKALQLIDLLDEHQIHGLMYVDDAMLYEHPTGHVVRTSRWAQTLPPEQRPTFTQVSSLAQAARDVNAVWKFALTDEDIPRLQRFGQHVEQALGLECEWSWHDQVDIARKGNSKGKRLTQWIEAQGGSMKNVIAFGDNYNDISMLEAAGTGVAMGNADEAVKARADVVIGDNTTDSIAKFIYTHLL | not soluble |
| MGSDKIHHHHHHMQGKKFISPGAWFSMNYPSDWNEFEDGEGSFLFYNPDVWTGNFRISAFKGNASYGKDAIRQELKENDSASLVKIGTWDCAYSKEMFQEEGTYYTSHLWITGTGNIAFECSFTVPKGGSAKEAEEVIATLEARKEGEKYPAELIPVRLSEIYQINEGYEWVVSTVKQELKKDFQGVEEDLEKIQQVIDSGKISPKKKDEWLAIGITVCAILTNEVEGMEWKTLIDGNREVPVLEYQGRTIDPMKIAWSKVKAGQPCNIAEAYQSAIDHH | not soluble |
